This experiment deals with T1, 重组人proAMH蛋白 (recombinant human proAMH protein) (human, UniProt P03971 25-560).
T1 construct: Expressed in Expi293 cells and purified on Ni-IMAC; nothing is said about the recombinant protein itself; also called His-tag重组人proAMH蛋白; 人proAMH标准品蛋白; not shown: His-tag; neither its length nor its terminus is stated
T1 sequence (looked up): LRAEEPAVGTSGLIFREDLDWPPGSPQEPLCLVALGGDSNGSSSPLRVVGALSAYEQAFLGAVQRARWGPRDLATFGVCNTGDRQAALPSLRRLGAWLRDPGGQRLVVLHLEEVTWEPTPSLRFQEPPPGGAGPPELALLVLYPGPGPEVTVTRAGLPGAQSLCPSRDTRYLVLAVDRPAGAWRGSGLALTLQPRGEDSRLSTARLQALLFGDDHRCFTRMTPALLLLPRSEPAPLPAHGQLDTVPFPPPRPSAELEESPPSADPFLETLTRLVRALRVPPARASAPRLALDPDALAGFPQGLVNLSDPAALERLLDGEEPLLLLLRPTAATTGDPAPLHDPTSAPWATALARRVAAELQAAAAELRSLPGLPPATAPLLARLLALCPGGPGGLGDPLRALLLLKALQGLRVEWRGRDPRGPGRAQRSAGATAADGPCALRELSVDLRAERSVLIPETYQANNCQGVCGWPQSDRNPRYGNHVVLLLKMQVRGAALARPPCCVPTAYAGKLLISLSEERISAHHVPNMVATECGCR
The experiment in a line: SPR, Biacore 3000; antibody immobilised on CM5 chip, proAMH at 100-3 nM as analyte.

B1: 单克隆抗体A (抗人proAMH蛋白兔单克隆抗体A) (antibody, V domains shown)
VH: QSVKESEGGLFKPTDTLTLTCTVSAFSISTYGVSWVRQAPGNGLEYIGWIAATGKVFYASWAKSRSTITRNTYENTVTLKMTSLTVADTATYFCAHVIWATQTFDFWGPGTLVTVSS
VL: DVVMTQTPASVSDPVGGTVTIKCQASQTITNFLSWFQQKPGQPPKLLIYNTMTLASGVPSRFKGSGSGTEYTLTISGVECADAATYYCQEGDNWDEVDAVFGGGTEVVVKG
notes: Recombinant rabbit monoclonal antibody made in 293F cells; kappa light chain, heavy constant region called IgG1 type; Copies '2' follows from the IgG format; also called monoclonal antibody A
B1: the Kd (in general, the concentration at which binding is half-saturated) worked out at 6.02 nM; the koff (as a rule, a measure of how fast the partners let go of each other) stood at 0.000117 s⁻¹; the kon – broadly, the second-order rate constant of association – stood at 19500 M⁻¹ s⁻¹.

These data come from CN114891104A (YOURUI SAISI WUHAN BIOTECHNOLOGY CO LTD, dated 2022).
